Where no end group is shown, it is not given here.

Experimental findings from patent US9364412B2, “Electrostatically controlled hydrogels” (University of Utah Research Foundation, priority 2005, dated 2016) are described below.

The nature of series [1]: Salt-induced gelation (NaCl added to peptide solution). Type of series: physicochemical. The conditions noted are these: for final NaCl concentration for salt-induced gelation: peptides dialyzed in 30 mM buffer, pH 6.0. How it is done:
For pH-induced gelation, dialyzed peptide solutions in vials were exposed to vapors of acetic acid (acid-induced gelation) or ammonium hydroxide (base-induced gelation). […] For salt-induced gelation, saturated sodium chloride solution was added into the dialyzed stock peptide solution so that the final peptide concentration in the hydrogel was 1 wt %. For mixing-induced gelation, dialyzed peptide solutions were mixed at 1:1 weight ratio such that the final total peptide concentration was 1 wt %.
The salt concentration necessary to induce gelation was quite high as indicated by FIG. 2. All peptides were dialyzed in 30 mM buffer and needed a much higher concentration to trigger hydrogelation.

Series [2] can be described thus: Solubility of peptide in buffer (observation). Type of series: physicochemical.
Series [3] deals with T1, SEQ ID NO 1, Acetyl-EWEVEVEVEV-amide (negatively charged module).
T1 construct: Synthetic designed decapeptide; also called Acetyl-EW(EV)4-amide; negatively-charged peptide module
T1 peptide: Ac-EWEVEVEVEV-NH2
As to the kind of experiment: mixing-induced co-assembly into hydrogel, dynamic rheometry.

Series [4] addresses T2, SEQ ID NO 9, Acetyl-EWEAEAEAEA-amide (negatively charged module).
T2 construct: also called EAW10
T2 peptide: Ac-EWEAEAEAEA-NH2
Briefly: small-angle X-ray scattering of the mixed peptide pair. The procedure:
(§1) A small-angle x-ray scattering instrument was used for measurements at 25° C. This instrument has a slit geometry and all analyses were corrected for this. The angular dependence of the scattering of x-rays from particles in a solvent has the form:
(§2) Transmission electron microscopic (TEM) images of all hydrogels show the formation of fibrous network (FIG. 20). However, the drying step involved in the sample preparation for TEM might cause peptide fibers to aggregate further, giving rise to very heterogeneous samples that were difficult to characterize accurately in terms of fiber thickness, estimated very approximately as ~30 nm (diameter). Therefore, small angle X-ray scattering (SAXS) was used to probe the hydrated fibrous network with minimal perturbations to the samples. The measured scattering intensity (I(Q)) increased over time for each of the biomaterials, indicative of the formation of aggregates and consistent with a growing fibril networks (FIG. 18). […] The trend of the gelation kinetics is evident in FIG. 18, and also in the summary of the structural parameters that can be determined using P(r) analysis (Table 4). The kinetics of the formation of these structures is distinctive among the peptide pairs, with the SEQ ID NO 10:SEQ ID NO 11 pair reaching equilibrium most rapidly (between 15 min and 1 h) and the SEQ ID NO 9:SEQ ID NO 8 pair taking more than 11 hours before its small-angle scattering pattern becomes evident. The overall gelation kinetics monitored by SAXS follows a clear order of SEQ ID NO 10:SEQ ID NO 11>SEQ ID NO 9:SEQ ID NO 11>SEQ ID NO 10:SEQ ID NO 8>SEQ ID NO 9:SEQ ID NO 8. The order of gelation kinetics can be directly correlated to the total electrostatic and hydrophobic interactions among the oligopeptide pairs, which is highest for the SEQ ID NO 10:SEQ ID NO 11 pair and least for the SEQ ID NO 9:SEQ ID NO 8 pair. Among the two unequal chain length pairs, kinetics of SEQ ID NO 9:SEQ ID NO 11 (13 charged and 12 apolar amino acids) was faster than SEQ ID NO 10:SEQ ID NO 8 (12 charged and 13 apolar amino acids).

Series [5] concerns the target T3, SEQ ID NO 10, Acetyl-WEAEAEAEAEAEAEA-amide (negatively charged module).
T3 construct: Synthetic designed 15-mer
T3 peptide: Ac-WEAEAEAEAEAEAEA-NH2
The description is as above. The procedure: as §1, §2

A further series concerns the target T4, SEQ ID NO 5.
T4 construct: All peptides were made on Rink Amide resin; also called member of the serine pair
T4 peptide: EWESESESES-NH2
Briefly: mixing-induced co-assembly into hydrogel, dynamic rheometry.

Consider “Acetyl-KWKVKVKVKVKVKVK-amide (Ac-KWKVKVKVKVKVKVK-NH2) [SEQ ID NO 2, positively charged peptide module]”, for which the “final NaCl concentration for salt-induced gelation” value in series [1] was 1.5 M.

Regarding “Ac-WKVKVKVKVK-NH2 [SEQ ID NO 3, Acetyl-WKVKVKVKVK-amide]”, the “solubility at pH 7” value in series [2] is on record as “did not appear to be high enough”.

With “Acetyl-EWEVEVEVEV-amide (Ac-EWEVEVEVEV-NH2) [SEQ ID NO 1, negatively charged peptide module]”, in series [1] (1.5 M salt concentration), the “state of sample at 1.5 M NaCl” value is reported as “still a viscous solution”. In series [1], the “final NaCl concentration for salt-induced gelation” value stood at 3 M.

B1: SEQ ID NO 3, Acetyl-WKVKVKVKVK-amide (positively charged module) (peptide)
peptide: Ac-WKVKVKVKVK-NH2
notes: Synthetic designed decapeptide; also called Acetyl-WK(VK)4-amide; positively-charged peptide module
With B1, in series [3], the binding result is recorded as “binds”.

Turning to Ac-WKAKAKAKAK-NH2 (also called KAW10) [SEQ ID NO 8, Acetyl-WKAKAKAKAK-amide (positively charged module)], the binding result in series [4] and in series [5] was “binds” each time.

As to Ac-KWKAKAKAKAKAKAK-NH2 (Synthetic designed 15-mer) [SEQ ID NO 11, Acetyl-KWKAKAKAKAKAKAK-amide (positively charged module)], the binding result in series [4] and in series [5] was “binds” each time.

Turning to Ac-KWKVKVKVKVKVKVK-NH2 (Synthetic designed 15-mer) [SEQ ID NO 2, Acetyl-KWKVKVKVKVKVKVK-amide (positively charged module)], the binding result in series [3] is on record as “binds”.

B2: SEQ ID NO 4 (peptide)
peptide: WKSKSKSKSK-NH2
notes: All peptides were made on Rink Amide resin; also called member of the serine pair
As to B2, the binding result in the series with SEQ ID NO 5 is on record as “binds”.
